Drawing on the supplement of paper PMC10567573, this text covers protein stability index for 72 sequences.

± gives the standard deviation.

The data set can be described thus: protein stability index of a GFP-peptide fusion (GPS, HEK-293T) (PSI 1-6); higher = more stable.
Setting [1] is: treatment: DMSO, c terminus: a fixed tail appended.
Where [2] appears, read: treatment: MLN4924 1 uM, 8 h, c terminus: a fixed tail appended.
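Further: 24-mer peptide tiles fused after GFP, lentivirally expressed, FACS-sorted into six equal bins by GFP/DsRed ratio, decoded by Illumina sequencing, PSI is the read-weighted mean bin number.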

On to SASSTGDLPKAKTRAADLLVNPLD [SRPK2], for which the protein stability index runs as follows: under setting [1], 4.97 ± 0.29; under setting [2], 4.99 ± 0.33.
Take HHHLHKTLREITDQEHNVAALKQA [TEKT4]: the protein stability index runs as follows: under setting [1], 4.35 ± 0.13; under setting [2], 4.52 ± 0.11.
ADKKRSGKKKISKADIGAPSGFKH [WAS]: the protein stability index was found to be 4.63 ± 0.27 under setting [1] and 4.87 ± 0.24 under setting [2].
On to DFCKVFLISGVTLDNCVEVGRIAN [KLHL13], for which the protein stability index by setting is: under setting [1], 2.47 ± 1.2; under setting [2], 2.12 ± 0.47.
The like results for TLSISDVRTLSEPPDKGEEQVNFC [ZBTB22] were, in that order, 4.94 ± 0.21 and 5.09 ± 0.22.
Regarding AIMRSPQMVSAIVRTMQNTNDVET [CTNNB1], the protein stability index was found to be 3.77 ± 0.098 under setting [1] and 3.81 ± 0.14 under setting [2].
In the case of AMFAADPKKPIGGNIIAHASTTRL [RAD51], the protein stability index by setting is: under setting [1], 3.32 ± 0.087; under setting [2], 3.39 ± 0.12.
As to HEDHMVNLRYGFTKEVMNKYKVHG [PPEF2], the protein stability index under setting [1] stood at 3.24 ± 0.51 and the protein stability index under setting [2] was determined as 3.58 ± 0.53.
With GLEAASVYSDHTNTNNLTFLMDLP [RNF180], the protein stability index was found to be 3.13 ± 0.26 under setting [1] and 3.22 ± 0.3 under setting [2].
EEEKEWAFEESKIDEHHFVAVALR [AASDHPPT]: the protein stability index is 3.73 ± 0.37 under setting [1] and 3.84 ± 0.42 under setting [2].
DAQGSEMVTCKSEFYHDEFKRWIY [GAN]: the protein stability index by setting is: under setting [1], 2.61 ± 0.46; under setting [2], 2.52 ± 0.13.
With AGYEVDKIAQNLDFVNLMAYDFHG [CHIT1], the protein stability index turned out to be 2.28 ± 0.41 under setting [1] and 2.36 ± 0.19 under setting [2].
Turning to TCRPPSSSESSSDSDNSGGGGGGG [ANKRD17], the protein stability index under setting [1] stood at 5.44 ± 0.24 and the protein stability index under setting [2] is 5.43 ± 0.26.
The like results for KDRRFAYGRSDVVVLCFSIANPNS [RHOBTB1] were, in that order, 2.74 ± 0.54 and 2.34 ± 0.46.
As to RSCTPNAEVRHEIQDGTIHLYIYS [KMT2E], the protein stability index by setting is: under setting [1], 2.1 ± 0.33; under setting [2], 2.57 ± 0.33.
In turn, ESTFKNTEISFILGQEFDEVTADD [FABP4] had a protein stability index under setting [1] of 4.74 ± 0.13 and a protein stability index under setting [2] of 5.03 ± 0.18.
The like results for VWSCEGCKAFFKRSIQGHNDYICP [ESR2] were, in that order, 2.32 ± 0.16 and 2.15 ± 0.11.
For the sequence DDTPEVLNRALSNLSSRWKNWWVR [CDS2], the protein stability index is, setting by setting: under setting [1], 2.89 ± 0.058; under setting [2], 3.12 ± 0.25.
Regarding GHHLLKWIIKSNYQGLPVRCVKSI [SRPK2], the protein stability index under setting [1] worked out at 2.2 ± 0.56 and the protein stability index under setting [2] was 2.33 ± 0.34.
Regarding KEVMLFGHGTRKRVPLGRLELLEE [RSAD1], the protein stability index is 3.6 ± 0.19 under setting [1] and 3.59 ± 0.28 under setting [2].
The like results for LKGSRVSILFGHENRVSTLRVSPD [GNB5] were, in that order, 2.96 ± 0.15 and 3.02 ± 0.29.
As to PRSGEQAEGSPGGPGDSQGRKRRQ [CDKN1A], the protein stability index under setting [1] worked out at 5.56 ± 0.16 and the protein stability index under setting [2] is 5.48 ± 0.27.
AYGNRTECRNPQELESIRQDRDAL [FEM1B] came in with a protein stability index under setting [1] of 4.71 ± 0.24 and a protein stability index under setting [2] of 4.68 ± 0.16.
Take GTIHALIFAWNKWIDIKQFVWYTP [STEAP1]: the protein stability index worked out at 3.28 ± 0.26 under setting [1] and 2.18 ± 0.11 under setting [2].
SVSLNKTARPFGAPPPADSAPQQN [PDLIM7]: the protein stability index stood at 4.42 ± 0.11 under setting [1] and 4.46 ± 0.13 under setting [2].
In the same order, the values of DSTWLLLRRIRAESGTKGLFAGFL [SLC25A39] are 2.63 ± 0.67 and 2.58 ± 0.53.
In the same order, the values of DYSREVNTTEELEALITDPDEMRM [FEM1A] are 5.11 ± 0.21 and 5.17 ± 0.18.
For VELLLARKISVNAKDEDQWTALHF [RIPK4], the protein stability index was found to be 2.91 ± 0.82 under setting [1] and 1.83 ± 0.4 under setting [2].
In the case of LRLEREEYVLLKALALANSDSVHI [ESRRA], the protein stability index was 2.51 ± 0.15 under setting [1] and 2.27 ± 0.2 under setting [2].
Consider RRHLQFWKSHLKKVQKPLLQAPFL [RHOBTB1], for which the protein stability index runs as follows: under setting [1], 2.14 ± 0.51; under setting [2], 1.59 ± 0.26.
On to PKAQLSGYAVEATRNQSQLQRFL [FBF1], for which the protein stability index by setting is: (treatment: DMSO, c terminus: native) 4.13 ± 0.19; (treatment: MLN4924 1 uM, 8 h, c terminus: native) 4.21 ± 0.38.
Take ERLQAIAEKRKRQAEIENKRRQLE [PALM]: the protein stability index reads like this: under setting [1], 3.74 ± 0.16; under setting [2], 3.73 ± 0.27.
GVLILFLTFFAFLHCWLNAFAEML [SOAT1] showed a protein stability index under setting [1] of 2.88 ± 0.4 and a protein stability index under setting [2] of 2.85 ± 0.36.
Consider NDRLYAIGGNHLKGFSHLDVMLVE [KLHL14], for which the protein stability index by setting is: under setting [1], 2.35 ± 0.33; under setting [2], 2.58 ± 0.17.
For the sequence LKGYLYAVGGRNAAGELPTVECYN [KLHL13], the protein stability index under setting [1] was 2.37 ± 0.51 and the protein stability index under setting [2] worked out at 2.67 ± 0.34.
Take ISLDVLQPSFPEILLESHMVMIRG [POMT2]: the protein stability index under setting [1] is 2.34 ± 0.39 and the protein stability index under setting [2] stood at 2.41 ± 0.71.
On to KLEPIKSRAPQLHLEYRFYKQLGS [CSNK1G1], for which the protein stability index by setting is: under setting [1], 2.06 ± 0.76; under setting [2], 2.27 ± 0.21.
Regarding LCKIGSERSLVLDRLASNVAKRKS [IKZF1], the protein stability index under setting [1] came to 3.83 ± 0.24 and the protein stability index under setting [2] was 3.93 ± 0.28.
With ANFSLGSINQRLNKRERSKLKNLR [RNF180], the protein stability index reads like this: under setting [1], 2.91 ± 0.35; under setting [2], 3.28 ± 0.43.
As to GTVPGQAPRLAVAVPAVTSADSQF [LYSMD4], the protein stability index is, setting by setting: under setting [1], 4.46 ± 0.28; under setting [2], 4.55 ± 0.17.
In the case of QLLADEKMKQLTEETEVLAHEIER [TRIM35], the protein stability index reads like this: under setting [1], 5.09 ± 0.46; under setting [2], 5.21 ± 0.21.
Turning to LTNSEYRSEQSVKLRRQVIQVVLN [ZER1], the protein stability index is, setting by setting: under setting [1], 2.51 ± 0.23; under setting [2], 2.44 ± 0.48.
Regarding HLNGHAMCQTKHSPWADGTPCGPA [ADAMTS4], the protein stability index by setting is: under setting [1], 3.12 ± 0.35; under setting [2], 3.11 ± 0.22.
In the same order, the values of NQWETPPEDLQTDLAKLVDQQNPT [ZNF449] are 5.36 ± 0.21 and 5.29 ± 0.26.
As to NGTKADGKDAKTTNGHGGEAAEGK [TRIM29], the protein stability index amounted to 5.48 ± 0.2 under setting [1] and 5.55 ± 0.12 under setting [2].
Take IRVQGREFRAHRAVLAASSPYFHD [ZBTB22]: the protein stability index runs as follows: under setting [1], 2.55 ± 0.21; under setting [2], 2.41 ± 0.16.
In the case of VDEVSVSLRLWDTFGDHHKDRRFA [RHOBTB1], the protein stability index stood at 3.01 ± 0.1 under setting [1] and 3.08 ± 0.2 under setting [2].
As for VDDAYVRRMAAEATEWQKAGAPPP [SRPK2], the protein stability index is, setting by setting: under setting [1], 4.52 ± 0.26; under setting [2], 4.63 ± 0.16.
For IEQQQIRNALENIRKEMKLLEQAG [CRYL1], the protein stability index came to 3.84 ± 0.17 under setting [1] and 4.27 ± 0.62 under setting [2].
For the sequence PQAPAPATATDTFEAAPPAPAPAP [CEBPB], the protein stability index runs as follows: under setting [1], 5.28 ± 0.51; under setting [2], 5.38 ± 0.35.
In the same order, the values of SIMSTGIVQGSSGAQGSGGGSTSA [CARM1] are 4.85 ± 0.24 and 5.12 ± 1.
Take LQLFSSTLVGCWSDVVGRRSSLLA [MFSD9]: the protein stability index under setting [1] came to 2.59 ± 0.65 and the protein stability index under setting [2] is 2.38 ± 0.47.
For the sequence EDGVWYSVAPMNVRRGLAGATTLG [KLHL12], the protein stability index by setting is: under setting [1], 3.17 ± 0.23; under setting [2], 3.3 ± 0.17.
For the sequence SKILSSKSKAYTVVGTPCYISPEL [NEK8], the protein stability index reads like this: under setting [1], 2.82 ± 0.12; under setting [2], 2.88 ± 0.37.
GGNDLCVWNRKLDLLCKTSHLSDT [WDR41]: the protein stability index by setting is: under setting [1], 3.16 ± 0.39; under setting [2], 3.05 ± 0.18.
With GDWIGLYRHFLKSPNFDGWFKTRR [DENND6A], the protein stability index amounted to 2.82 ± 0.038 under setting [1] and 2.49 ± 0.49 under setting [2].
On to GKSGLRVSCLGLGTWVTFGGQITD [KCNAB2], for which the protein stability index reads like this: under setting [1], 2.2 ± 0.61; under setting [2], 2.04 ± 0.64.
Turning to TCPSSSTASSISSSGGSSGSSSDN [DYRK1B], the protein stability index under setting [1] was found to be 5.35 ± 0.16 and the protein stability index under setting [2] amounted to 5.48 ± 0.21.
For the sequence FFRSLLPNYTMEGERPEEGVAGGL [TCF25], the protein stability index runs as follows: under setting [1], 3.09 ± 0.32; under setting [2], 3.52 ± 0.15.
Take SDDEMELEETEPPLEPEDALSDAE [P3H4]: the protein stability index turned out to be 5.5 ± 0.27 under setting [1] and 5.59 ± 0.24 under setting [2].
SGYGFRPSMVSGGYVANSSNCISG [KRT71]: the protein stability index under setting [1] stood at 2.82 ± 0.2 and the protein stability index under setting [2] was 2.73 ± 0.16.
For VLQSVRELSRSRKLYGQRERVWAL [FCHSD1], the protein stability index is, setting by setting: under setting [1], 2.06 ± 0.24; under setting [2], 2.37 ± 0.25.
In the same order, the values of ELPAPAEVAAKNQSLEGDTTKGTS [MLH1] are 5.61 ± 0.14 and 5.59 ± 0.16.
As to DITVSVSTSFLPELSSVHPPHYFF [FBXO3], the protein stability index reads like this: under setting [1], 2.79 ± 0.48; under setting [2], 2.63 ± 0.58.
Sequence CSPALKRSHSDSLDHDIFQLIDPD [CDC25A] had a protein stability index under setting [1] of 3.76 ± 0.34 and a protein stability index under setting [2] of 3.72 ± 0.41.
The like results for KEPATMSWLEENVHEVLQAVDAGD [TCF25] were, in that order, 5.05 ± 0.25 and 5.13 ± 0.17.
The like results for NVPVDDSLVKELLRMCSHGEGKIN [EFHC1] were, in that order, 3.39 ± 0.2 and 3.55 ± 0.11.
Take GMSLAKELIFSARVLDGKEAKAVG [AUH]: the protein stability index turned out to be 3.45 ± 0.13 under setting [1] and 3.48 ± 0.17 under setting [2].
LMDGGDLPSVTDIRRPRLYLLQWL [PLK2]: the protein stability index is, setting by setting: under setting [1], 2.48 ± 0.17; under setting [2], 2.5 ± 0.27.
Regarding QGLKLYAVEISDHPGEHEVGEPEF [CPXM2], the protein stability index under setting [1] came to 4.5 ± 0.55 and the protein stability index under setting [2] turned out to be 5.11 ± 0.06.
For DMERFMEEMRELRRKIRELQLRYS [BEX5], the protein stability index is, setting by setting: under setting [1], 2.44 ± 0.36; under setting [2], 2.56 ± 0.6.
For the sequence LNGSSQPTTRNYPELNNNQYNRSS [CDC14A], the protein stability index is, setting by setting: under setting [1], 4.19 ± 0.17; under setting [2], 4.34 ± 0.09.
